Data published in patent US20180298070A1, “PEPTIDE COMPOUND” (Takeda Pharmaceutical Company Limited, published 2018).
Changes are numbered by the printed parent chain. Non-standard residues stand in square brackets, D forms with d. No end group written: not given here. Aib = CC(C)(N)C(=O)O

T1: human GIPR (human, UniProt P48546)
T1 sequence: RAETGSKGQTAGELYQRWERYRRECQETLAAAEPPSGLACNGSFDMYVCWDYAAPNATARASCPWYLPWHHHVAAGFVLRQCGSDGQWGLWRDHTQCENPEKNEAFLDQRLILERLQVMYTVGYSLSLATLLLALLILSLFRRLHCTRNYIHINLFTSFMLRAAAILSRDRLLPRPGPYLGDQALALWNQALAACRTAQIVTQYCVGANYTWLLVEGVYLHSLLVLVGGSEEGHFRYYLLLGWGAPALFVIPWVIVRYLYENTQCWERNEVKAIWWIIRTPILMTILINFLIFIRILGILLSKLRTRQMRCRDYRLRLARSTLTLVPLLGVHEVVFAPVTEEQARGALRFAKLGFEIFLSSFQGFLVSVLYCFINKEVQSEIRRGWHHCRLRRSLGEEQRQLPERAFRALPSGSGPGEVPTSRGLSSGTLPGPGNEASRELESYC

T2: human GIPR (human, UniProt P48546)
T2 sequence: T1 sequence

T3: human GIPR (human, UniProt P48546)
T3 sequence: T1 sequence

T4: human GIPR (human, UniProt P48546)
T4 sequence: T1 sequence

B1: Compound 30 (peptide)
peptide: Y[Aib]EGTVVSLYSI[Aib]LDRQAQ[Aib]EFVRWLLRGGPSSGAPPPSR-NH2
modifications: N-terminus assumed
SMILES: CC[C@H](C)[C@H](NC(=O)[C@H](CO)NC(=O)[C@H](Cc1ccc(O)cc1)NC(=O)[C@H](CC(C)C)NC(=O)[C@H](CO)NC(=O)[C@@H](NC(=O)[C@@H](NC(=O)[C@@H](NC(=O)CNC(=O)[C@H](CCC(=O)O)NC(=O)C(C)(C)NC(=O)[C@@H](N)Cc1ccc(O)cc1)[C@@H](C)O)C(C)C)C(C)C)C(=O)NC(C)(C)C(=O)N[C@@H](CC(C)C)C(=O)N[C@@H](CC(=O)O)C(=O)N[C@@H](CCCNC(=N)N)C(=O)N[C@@H](CCC(N)=O)C(=O)N[C@@H](C)C(=O)N[C@@H](CCC(N)=O)C(=O)NC(C)(C)C(=O)N[C@@H](CCC(=O)O)C(=O)N[C@@H](Cc1ccccc1)C(=O)N[C@H](C(=O)N[C@@H](CCCNC(=N)N)C(=O)N[C@@H](Cc1c[nH]c2ccccc12)C(=O)N[C@@H](CC(C)C)C(=O)N[C@@H](CC(C)C)C(=O)N[C@@H](CCCNC(=N)N)C(=O)NCC(=O)NCC(=O)N1CCC[C@H]1C(=O)N[C@@H](CO)C(=O)N[C@@H](CO)C(=O)NCC(=O)N[C@@H](C)C(=O)N1CCC[C@H]1C(=O)N1CCC[C@H]1C(=O)N1CCC[C@H]1C(=O)N[C@@H](CO)C(=O)N[C@@H](CCCNC(=N)N)C(N)=O)C(C)C
B2: Compound 307 (peptide)
peptide: YXEGTXISDYSIXLDRXAQXNFVNWXLAQRPSSGAPPPS
modifications: not fully specified; MeTyr at 1; Aib at 2, 13, 20; Iva at 6, 26; Lys(Eda-PEG(3)-PEG(3)-) at 17; C-terminal amide (-NH2)
B3: Compound 496 (peptide)
peptide: B2 peptide
modifications: N-terminal methyl (Me-Tyr); Aib at 2, 13, 20; Iva at 6, 26; Lys(Oda-GGGGGG-) at 17; C-terminal NH2
B4: Compound 503 (peptide)
peptide: B2 peptide with A18H
modifications: N-terminal methyl (Me-Tyr); Aib at 2, 13, 20; Iva at 6, 26; Lys(Heda-GGGGGG-) at 17; C-terminal NH2
B5: Compound 307 (peptide)
peptide: B2 peptide
modifications: not fully specified; N-methyl on Tyr 1; Aib at 2, 13, 20; Iva at 6, 26; Lys(Eda-PEG(3)-PEG(3)-) at 17; C-terminal amide
B6: Compound 521 (peptide)
peptide: B2 peptide with L14X, A18H
modifications: N-terminal methyl (Me-Tyr); Aib at 2, 13, 17, 20; Iva at 6, 26; Lys(Eda-GGGGGG-) at 14; C-terminal NH2
B7: Compound 484 (peptide)
peptide: B2 peptide with L14X, A18H
modifications: N-terminal methyl (Me-Tyr); Aib at 2, 13, 17, 20; Iva at 6, 26; Lys(Oda-GGGGGG-) at 14; C-terminal NH2

What was measured:
human GLP-1R [1] = target: human GLP-1R (human, UniProt P43220); assay: cell-based or functional assay
human GIPR [2] = target: T1, human GIPR; assay: cell-based or functional assay
human GIPR [3] = target: T2, human GIPR; assay: [125I]GIP displacement, hGIPR VLP
Protocol: (§1) For the measurement of the binding activity to GIPR, [¹²⁵I]GIP (PerkinElmer, Inc.) in a final concentration of 100 pM and a test compound in a specified concentration were mixed to GIPR_VLP in an assay buffer (50 mM HEPES (pH 7.4, WAKO 342-01375), 5 mM EGTA (WAKO 346-01312), 5 mM MgCl₂ (WAKO 136-03995), 0.1% BSA (Merckmillipore 81-066-04) and 0.005% Tween 20 (BioRad 170-6531)) and reacted at room temperature for 2 hours. VLP to which [¹²⁵I ]GIP was bound was trapped in a GF/C glass fiber filter 96-well plate (PerkinElmer 6005274) using a cell harvester and washed with an assay buffer. The GF/C glass fiber filter 96-well plate in which VLP was trapped was dried at 42° C. overnight. Thereafter, MicroScint-O (PerkinElmer 6013611) was added to the GF/C glass fiber filter 96-well plate sealed using a backseal and the plate was sealed using a topseal. The radioactivity of each well was eventually measured using Topcount (PerkinElmer) and the binding activity of the test compound to GIPR was calculated when the [¹²⁵I]GIP binding activity in the presence of GIP in a final concentration of […] was 100% and the [¹²⁵I]GIP binding activity of the wells to which DMSO was added was 0%.

human GLP-1R [4] = target: human GLP-1R (human, UniProt P43220); assay: cell-based or functional assay; remark: listed apart in the source
human GIPR [5] = target: T3, human GIPR; assay: cell-based or functional assay; remark: listed apart in the source
human GIPR [6] = target: T4, human GIPR; assay: [125I]GIP competition, human GIPR VLP
Protocol: as §1

Binder | Agonist activity (EC50, M) (human GLP-1R [1]) [M] | Agonist activity (EC50, M) (human GIPR [2]) [M] | IC50 (human GIPR [6]) [nM] | other results
B1 | > 1e-06 | 1e-11 |  | 
YAEGTVVSLYSIALYKIHQQEFVKWLLKGGPSSGAPPPSK [Compound 26, listing 1 of 2 here] |  |  |  | IC50 (human GIPR [3]): 420 nM
YAEGTVVSLYSIALDKIHQQEFVKWLLKGGPSSGAPPPSK [Compound 25] | > 1e-06 | 1.4e-09 |  | 
YAEGTVVSLYSIALYKIHQQEFVKWLLKGGPSSGAPPPSK [Compound 26, listing 2 of 2 here] | > 1e-06 | 1.2e-08 |  | 
YAEGTVVSLYSIALDKQHQQEFVKWLLKGGPSSGAPPPSK [Compound 24] | > 1e-06 | 5.1e-09 |  | 
B2 |  |  |  | Agonist activity (EC50, M) (human GLP-1R [4]): > 1e-06 M; Agonist activity (EC50, M) (human GIPR [5]): 4e-11 M
B3 |  |  | 10 | 
B4 |  |  | 8 | 
B5 |  |  |  | IC50 (human GIPR [3]): 5 nM
B6 |  |  | 20 | 
B7 |  |  | 10 | 
